# Publication PMC11381358, “Phosphorylation of the nuclear poly(A) binding protein (PABPN1) during mitosis protects mRNA from hyperadenylation and maintains transcriptome dynamics”
# T1: His-MBP-PABPN1 WT (human, UniProt Q86U42 1-306)
# T1 sequence: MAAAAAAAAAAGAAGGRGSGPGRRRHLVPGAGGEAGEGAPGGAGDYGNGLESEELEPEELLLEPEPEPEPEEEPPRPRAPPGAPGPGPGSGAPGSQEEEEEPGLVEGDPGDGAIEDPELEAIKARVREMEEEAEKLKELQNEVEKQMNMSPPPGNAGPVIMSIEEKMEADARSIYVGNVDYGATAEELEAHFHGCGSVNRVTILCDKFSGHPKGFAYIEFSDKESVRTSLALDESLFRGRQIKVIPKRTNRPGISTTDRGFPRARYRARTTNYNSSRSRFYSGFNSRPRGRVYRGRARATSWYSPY
# B1: poly(A)30 (ssRNA)
# RNA: AAAAAAAAAAAAAAAAAAAAAAAAAAAAAA
# Target: T1, His-MBP-PABPN1 WT
# Assay: filter binding; 50 mM Tris-HCl pH 8.0, 100 mM KCl, 5 mM MgCl2, 2 mM EDTA, 10% glycerol, 0.2 mg/ml BSA, 0.01% NP-40, 0.5 mM DTT, 2 U/ul RNase OUT; 500 pM RNA, protein 62.5 nM-4
# Details: protein: recombinant; tags: N-terminal His-MBP (uncleaved); label: 5'-32P; single strand
binder,measurement,value
B1,binding result,binds
